Assay results taken from the supplement of paper PMC9170038.

Tested on: MS2 coat protein
Test: apparent KD of MS2 coat protein; designed switch direction (-1 OFF switch, 1 ON switch): -1; higher = weaker reporter binding
In short: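 On Illumina chips, designed RNA switches with common flanks were made by stalled E. coli RNA polymerase. Titrations with SNAP-549-labelled MS2 coat protein, doubling from 0.7 or 1.5 nM to 3 µM, were done with no input, with 200 uM small-molecule ligand, or with an oligonucleotide input. Apparent KD is the median per design over clusters, from curve fits of normalised cluster fluorescence.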

[1] = input ligand: microRNA oligo, concentration not stated
[2] = Eterna round: R95, input ligand: microRNA oligo, concentration not stated
[3] = Eterna round: R95, input ligand: FMN 200 uM
[4] = Eterna round: R95, input ligand: none

| Sequence | apparent KD of MS2 coat protein (input ligand: FMN 200 uM) [nM] | apparent KD of MS2 coat protein (input ligand: none) [nM] | apparent KD of MS2 coat protein [1] [nM] | apparent KD of MS2 coat protein [2] [nM] | apparent KD of MS2 coat protein [3] [nM] | apparent KD of MS2 coat protein [4] [nM] |
| --- | --- | --- | --- | --- | --- | --- |
| ACUGGUCGAGGAUAUACAUGAGGAUCACCCAUGUGGUCACGUGACUUCGGUCACGAAUGUAGAAGGCGACCAGU [E3/3-A5] (Eterna round: R97, puzzle: Exclusion 3) | 61.4 | 188 | – | – | – | – |
| UUAUUAUAUGUAGGAUAUGCGUAUUAUUGUUAUGCAGAAGGACAUGAGGAUCACCCAUGUAUAUUAUUGUUGUAUAUUAUAUAU [Title] (Eterna round: R96, puzzle: Exclusion NG 1) | – | – | 20.7 | – | – | – |
| UAUGGUUAAGUCAGGAUAUACUCAUAGAAGUCUGUGUAGAAGGGACAUGAGGAUCACCCAUGUAUGGUAGUGUU [Ex4 #47] (Eterna round: R97, puzzle: Brourd's mod of Exclusion 4) | 151 | 159 | – | – | – | – |
| UUAAUUAAUUAUAUAAGAUCACAUGAGGAUCACCCAUGUAUAUAGGAUAUCAGCUCGUUUAGAGCUGAGAAGGAUAUACAAUAU [ExNG3/3-B2] (Eterna round: R96, puzzle: Exclusion NG 3) | 41.8 | 209 | 497 | – | – | – |
| AAGAUGCGGAUAGGAUAUGGAAAUUAAUAAAGACCAGAAGGAUUGGUCACACAACAUGAGGAUCACCCAUGUGUGUGUUGUGAA [AK ExNG1-5] (Eterna round: R96, puzzle: Exclusion NG 1) | – | – | 10.6 | – | – | – |
| GGCAUCGGAGGAUAUACUUAUGGUGAUACCGGAAGCUUUCUACUUGAGGAUCACCCAAGUAGAAGGCCGAUGCC [jl-ex2.4.84 ViennaUCT mod] (Eterna round: R97, puzzle: Exclusion 2) | 9.01 | 22.9 | – | – | – | – |
| AAGCAGUCAGGAUAUCGUUAAUUUAGUUGUUUGUAUUAGUUCGAGAAGGGACAUGAGGAUCACCCAUGUAAGAA [Ex4 #43] (Eterna round: R97, puzzle: Exclusion 4) | 40.5 | 41 | – | – | – | – |
| AAUCCUGAAGUUAGGAUAUGAAGUAUCACUGCACUUCAGAAGGGACUUGAGGAUCACCCAAGUAGCCGUGAGGC [jl-bmx4.4.61 ViennaUCT mod] (Eterna round: R97, puzzle: Brourd's mod of Exclusion 4) | 156 | 35.6 | – | – | – | – |
| UAGGUGUGAGGAUAUGGUAAAGAAAAGAUGAUGAAAGAACUCCAGAAGGCACAUGAGGAUCACCCAUGUAGAUG [Mat - Exclusion 4 - Mod of JL - D32] (puzzle: Exclusion 4) | – | – | – | 28.7 | – | – |
| AAUACAAGCUAUUGAUCCCACAUGAGGAUCACCCAUGUGCCUGGCCGUGAGACAAGGUUUACAAUAGCUCGUCUUAU [Sensor-V1 #46] (Eterna round: R97, puzzle: Sensor, turn-off variant 1) | 46.1 | 44.7 | – | – | – | – |
| AGCUGUGGCCGAGGAUAUCUAAAACCUCAAAACGAAAUAUAAUCGAACAUGAGGAUCACCCAUGUAGAGAAGGCGGUCUCAGCA [Eli eng2 - 031] (Eterna round: R96, puzzle: Exclusion NG 2) | – | – | 214 | – | – | – |
| GUAAUUAAUGUAGGAUAUGCAAGGCGAACCUAAGCAGAAGGACAUGAGGAUCACCCAUGUAUUGCGGUCUGCGUUCUGAUCGCU [salish99_ExNG1_r4_010] (Eterna round: R96, puzzle: Exclusion NG 1) | 19.1 | 17 | 8.25 | – | – | – |
| CAGUGCUGACGGAGAUCCAACAUGAGGAUCACCCAUGUCUCAAAAGCUUUUUGCUCGUCUUAUCCUCCUCAGUACUC [Mat - Sensor, turn-off var - Eli Mod - D57] (Eterna round: R97, puzzle: Sensor, turn-off variant 1) | 14.6 | 19.2 | – | – | – | – |
| CGGUGCUGAGGAUAUACAUGAGGAUCACCCAUGUGUUCCAGCUAGGUGACUGGCGGAUGUAGAAGGCGGUACUG [JL-ex3-3.39 Brourd mod] (puzzle: Exclusion 3) | – | – | – | 31.2 | 245 | 64.8 |
| UUUUAACAUGAGGAUCACCCAUGUGAGGAUAUCGUUUUUUUUUUUUUUUUUUUUUUUUCGAGAAGGCACAUUUU [My solution] (puzzle: Exclusion 1) | – | – | – | 84 | 127 | 14 |
| CUCCUCAUGGCGCCUAAACACAUGAGGAUCACCCAUGUACAGGCUUUCUGCCGUCUUAUAAUAAAACCGAGGAUGCG [Soedlexe] (puzzle: Sensor v3, turn-off variant 1) | – | – | – | 212 | 33.6 | 42.1 |
| CGUUCGCGAGGAUAUGCAUUCGAGUCCACUACGUGUCUGGGACUUGAGGAUCACCCAAGUAGAAGGCGCCUCCA [salish99_ex2_r4_650] (Eterna round: R97, puzzle: Exclusion 2) | 78.5 | 130 | – | – | – | – |
| AAAAAACAAGGAUAUACGAAGGAGGAUUAUCUUAAUUUUUGACAUGAGGAUCACCCAUGUAGAAGGUGUUAAAA [JR_Exclusion2_Sub009] (puzzle: Exclusion 2) | – | – | – | 38.2 | 83.5 | 48.4 |
| AAAAUAAAGAUGCCUUAAAACAUGAGGAUCACCCAUGUGAGUAAGGAUAUCGGAACCAAUCGCGACGAGAAGGUACUCGCGUGU [Ceestemaat] (Eterna round: R96, puzzle: Exclusion NG 3) | 9.87 | 14.4 | 9.44 | – | – | – |
| ACCUAACAUGAGGAUCACCCAUGUCAGGAUAUCCGGCCUAUGGAAACAUAGGAAGAACGGAGAAGGGACAGAGG [ChP 04-04-2015 #9] (puzzle: Exclusion 1) | – | – | – | 35 | 69.5 | 43.1 |
| AAGAAACAUGAGGAUCACCCAUGUCAGGAUAUCUCGAAAAGCAUAGAAAUAUGCGAAGAGAGAAGGGACUAUCC [ChP Ext 10-04-2015 #3] (puzzle: Exclusion 1) | – | – | – | 23.7 | 22.7 | 31.6 |
| AAAAGAAGUGUUAGGAUAUGUGUAAGUAGAAAGACACAGAAGGAACAUGAGGAUCACCCAUGUGGCCAAAGAAC [Vesotila] (puzzle: Brourd's mod of Exclusion 4) | – | – | – | 14.1 | 38.7 | 13.6 |
| AAUACAAGCUAUUGAUCCCACAUGAGGAUCACCCAUGUAGAUGGCGGUGACACCUCCAUUACGAUAGCUCGUCUUAU [Sensor-V1 #57] (Eterna round: R97, puzzle: Sensor, turn-off variant 1) | 321 | 347 | – | – | – | – |
| ACCUAACAUGAGGAUCACCCAUGUGAGGAUAUGUACAUCGGCUCGCGAAAGUGACCGAACAGAAGGUACAUGGU [EX1 A.26] (Eterna round: R97, puzzle: Exclusion 1) | 17.8 | 19.1 | – | – | – | – |
| GGUCAGAUGGUAGGAUAUUUAUAUCGAGUGACCCUUUCAUAACAUGAGGAUCACCCAUGUCGGUGGGAGAAGGGCCGUACGGCG [salish99_ExNG02_R04_013] (Eterna round: R96, puzzle: Exclusion NG 2) | 37.7 | 45.7 | 33.1 | – | – | – |
| UUUGUUGUUGUGAGGAUAUCGUAGUUAUUUUGUAACGAGAAGGCACAUGAGGAUCACCCAUGUUUUUUGAUGGU [JR_BMOE4_Sub063] (puzzle: Brourd's mod of Exclusion 4) | – | – | – | 24.9 | – | – |
